Laboratory results: US20260139061A1 (Novartis, published 2026)

B1: CAR1 Soluble scFv (scFv)
scFv: EIQLVQSGAEVKKPGATVKISCKGSGFNIEDYYIHWVQQAPGKGLEWMGRIDPENDETKYGPIFQGRVTITADTSTNTVYMELSSLRSEDTAVYYCAFRGGVYWGQGTTVTVSSGGGGSGGGGSGGGGSGGGGSDVVMTQSPDSLAVSLGERATINCKSSQSLLDSDGKTYLNWLQQKPGQPPKRLISLVSKLDSGVPDRFSGSGSGTDFTLTISSLQAEDVAVYYCWQGTHFPGTFGGGTKVEIKGSHHHHHHHH
notes: Soluble His-tagged humanized scFv; also called humanized EGFRvIII scFv variant, VH1-VK4, 4G4S
B2: CAR4 - Soluble scFv (scFv)
scFv: DVVMTQSPLSLPVTLGQPASISCKSSQSLLDSDGKTYLNWLQQRPGQSPRRLISLVSKLDSGVPDRFSGSGSGTDFTLKISRVEAEDVGVYYCWQGTHFPGTFGGGTKVEIKGGGGSGGGGSGGGGSGGGGSEIQLVQSGAEVKKPGESLRISCKGSGFNIEDYYIHWVRQMPGKGLEWMGRIDPENDETKYGPIFQGHVTISADTSINTVYLQWSSLKASDTAMYYCAFRGGVYWGQGTTVTVSSGSHHHHHHHH
notes: Soluble His-tagged humanized scFv; also called humanized EGFRvIII scFv variant, VK2-VH5, 4G4S
B3: CAR5 - Soluble scFv (scFv)
scFv: EIQLVQSGAEVKKPGATVKISCKGSGFNIEDYYIHWVQQAPGKGLEWMGRIDPENDETKYGPIFQGRVTITADTSTNTVYMELSSLRSEDTAVYYCAFRGGVYWGQGTTVTVSSGGGGSGGGGSGGGGSGGGGSDVVMTQSPLSLPVTLGQPASISCKSSQSLLDSDGKTYLNWLQQRPGQSPRRLISLVSKLDSGVPDRFSGSGSGTDFTLKISRVEAEDVGVYYCWQGTHFPGTFGGGTKVEIKGSHHHHHHHH
notes: Soluble His-tagged humanized scFv; also called humanized EGFRvIII scFv variant, VH1-VK2, 4G4S
B4: CAR2 - Soluble scFv (scFv)
scFv: DVVMTQSPDSLAVSLGERATINCKSSQSLLDSDGKTYLNWLQQKPGQPPKRLISLVSKLDSGVPDRFSGSGSGTDFTLTISSLQAEDVAVYYCWQGTHFPGTFGGGTKVEIKGGGGSGGGGSGGGGSGGGGSEIQLVQSGAEVKKPGATVKISCKGSGFNIEDYYIHWVQQAPGKGLEWMGRIDPENDETKYGPIFQGRVTITADTSTNTVYMELSSLRSEDTAVYYCAFRGGVYWGQGTTVTVSSGSHHHHHHHH
notes: Soluble His-tagged humanized scFv; also called humanized EGFRvIII scFv variant, VK4-VH1, 4G4S
B5: CAR8 - Soluble scFv (scFv)
scFv: DVVMTQSPLSLPVTLGQPASISCKSSQSLLDSDGKTYLNWLQQRPGQSPRRLISLVSKLDSGVPDRFSGSGSGTDFTLKISRVEAEDVGVYYCWQGTHFPGTFGGGTKVEIKGGGGSGGGGSGGGGSGGGGSEIQLVQSGAEVKKPGATVKISCKGSGFNIEDYYIHWVQQAPGKGLEWMGRIDPENDETKYGPIFQGRVTITADTSTNTVYMELSSLRSEDTAVYYCAFRGGVYWGQGTTVTVSSGSHHHHHHHH
notes: Soluble His-tagged humanized scFv; also called humanized EGFRvIII scFv variant, VK2-VH1, 4G4S
B6: CAR 3 - Soluble scFv (scFv)
scFv: EIQLVQSGAEVKKPGESLRISCKGSGFNIEDYYIHWVRQMPGKGLEWMGRIDPENDETKYGPIFQGHVTISADTSINTVYLQWSSLKASDTAMYYCAFRGGVYWGQGTTVTVSSGGGGSGGGGSGGGGSGGGGSDVVMTQSPLSLPVTLGQPASISCKSSQSLLDSDGKTYLNWLQQRPGQSPRRLISLVSKLDSGVPDRFSGSGSGTDFTLKISRVEAEDVGVYYCWQGTHFPGTFGGGTKVEIKGSHHHHHHHH
notes: Soluble His-tagged humanized scFv; also called humanized EGFRvIII scFv variant, VH5-VK2, 4G4S
B7: CAR10 (Anti-EGFRvIII clone 139), full CAR on cells (other)
chain: DIQMTQSPSSLSASVGDRVTITCRASQGIRNNLAWYQQKPGKAPKRLIYAASNLQSGVPSRFTGSGSGTEFTLIVSSLQPEDFATYYCLQHHSYPLTSGGGTKVEIKRTGSTSGSGKPGSGEGSEVQVLESGGGLVQPGGSLRLSCAASGFTFSSYAMSWVRQAPGKGLEWVSAISGSGGSTNYADSVKGRFTISRDNSKNTLYLQMNSLRAEDTAVYYCAGSSGWSEYWGQGTLVTVSSTTTPAPRPPTPAPTIASQPLSLRPEACRPAAGGAVHTRGLDFACDIYIWAPLAGTCGVLLLSLVITLYCKRGRKKLLYIFKQPFMRPVQTTQEEDGCSCRFPEEEEGGCELRVKFSRSADAPAYKQGQNQLYNELNLGRREEYDVLDKRRGRDPEMGGKPRRKNPQEGLYNELQKDKMAEAYSEIGMKGERRRGKGHDGLYQGLSTATKDTYDALHMQALPPR
notes: Chimeric antigen receptor (139 scFv, CD8 hinge and TM, 4-1BB, CD3 zeta) on Jurkat, JNL or primary human T cells; also called human CAR10

Target: T1, human EGFRvIII (epidermal growth factor receptor variant III), expressed on cells (human, UniProt P00533 25-1210)
T1 construct: whole, on cells; also called hEGFRvIII; hEGFRvII
Assay: flow cytometry (FACS), purified His-tagged scFv on HEK293F cells transiently transfected with hEGFRvIII
Method: HEK293F suspension cells were transiently transfected with either wild type hEGFR or hEGFRvII and were harvested 2 days after transfection. Approximately 5e5 cells/per well were transferred to a BD Falcon 96 well plate. The cells were spun down at 900 rpm (Sorval Legend XT centrifuge) for 3 minutes. The supernatant was removed. Anti-EGFRvII scFv protein samples were diluted in DPBS with 5% FBS. The samples were added into the wells, mixed and incubated for 1 hour. The cells were washed twice in the DPBS with 5% FBS. The cells were incubated with anti-poly His PE (R&D) for 1 hour, washed twice before FACS analysis (LSRII from BD Biosciences).

Row | binding result | Binder
1 | binds | B1
2 | binds | B2
3 | binds | B3
4 | binds | B4
5 | binds | B5
6 | binds | B6

Target: T2, EGFRvIII-Fc fusion protein (UniProt P00533 25-645)
T2 construct: Soluble reagent used at different concentrations to stain CAR-transfected Jurkat cells; not shown: Fc part; detected with PE anti-human IgG Fc
Assay: flow cytometry, Jurkat E6 cells electroporated with the CAR vector, stained with different concentrations of Fc fusion protein and PE anti-human IgG Fc
Method: Jurkat E6 cells were electroporated with either CAR9 vector or CAR10 vector using Amaxa Cell Line Nucleofector Kit V (Lonza, Colgne AG, Germany) and program X-001. One day after the transfection, 0.5×10⁶ cells were placed into each well of a V-shape 96 well plate (Greiner Bio-One, Germany) in 0.2 ml FACS buffer (DPBS buffer containing 5% FBS) and incubated for 10 minutes at room temperature. Cells were then spun down and resuspended in 0.2 ml of the FACS buffer with different concentrations of EGFRvIII-Fc or EGFRwt-Fc and incubated at 4° C. for 30 minutes. Cells were then washed with FACS buffer three times, and incubated with 0.2 ml of the FACS buffer with 2 μl of PE anti-human IgG Fc (Jackson ImmunoResearch Laboratories, West Grove, PA) for 30 minutes at 4° C. in the dark. After washing with 0.2 ml of FACS buffer three times, cells were analyzed on a LSRII (BD Biosciences, San Jose, CA) machine using the FACSDiva software (BD Biosciences, San Jose, CA). Immunofluorescence staining was analyzed as the relative log fluorescence of live cells, and the percentage of the PE positive cells were measured.

Row | fold lower binding compared to CAR9 | Binder
7 | ~40 fold | B7
